In PMC8010463, “Discovery of a novel lactate dehydrogenase tetramerization domain using epitope mapping and peptides” (The Journal of Biological Chemistry, 2021):

Legend:
dimeric LDH-Htr [1] = test: MST, peptide binding to LDH-Htr; design: species or system human; details: 1.5 s MST on time, n = 3, labeled LDH-Htr 100 nM, 50 mM sodium phosphate pH 7.6, 100 mM NaCl, 0.01% Tween-20, LP-22 value 'estimated'
Experimental: MST measurements were performed on a NanoTemper Monolith NT.115 instrument (NanoTemper Technologies) using red dye–N-Hydroxysuccinimide fluorescent labeling. LDH-Htr purified to homogeneity was labeled with the Monolith red dye–N-Hydroxysuccinimide second-generation labeling dye (NanoTemper Technologies), according to the supplied protocol. Measurements were performed in 50 mM sodium phosphate, pH 7.6, and 100 mM NaCl containing 0.01% Tween-20 in standard-treated capillaries (NanoTemper Technologies). The final concentration of proteins in the assay was 100 nM. Ligands were titrated in 1:1 dilutions following manufacturer's recommendations. Experiments were performed in triplicates using 40% light-emitting diode power, high MST power, laser on time 20 s and laser off time 3 s. Peptides were evaluated for their thermophoretic pattern, and Kds were extracted from raw data at a 1.5 s MST on time following the manufacturer's instructions.

dimeric LDH-Htr [2] = test: WaterLOGSY NMR with LDH-Htr; format: binding, human; details: LDH-Htr 15 μM; LP-22 400 μM; 50 mM sodium phosphate pH 7.6, 100 mM NaCl, 10% heavy water; 277 K
Experimental: (§1) Human LDH-H (full length and truncated)-6-His proteins for 1D NMR were expressed and purified from E. coli, as described previously. All experiments were performed on an Ascend Avance III 600 MHz system equipped with a broadband cryoprobe (Bruker) following a previously described procedure ([16]).
(§2) For WaterLOGSY NMR studies, samples were prepared in 10% heavy water containing 50 mM sodium phosphate buffer, pH 7.6, and 100 mM NaCl. The concentration of LDHs was ranging from 15 to 20 μM of monomer. Ligand binding was detected using a WaterLOGSY ephogsygpno.2 avance-version sequence with a 1 s mixing time, 4096 scans were collected at 277 K to yield a 16 K points free induction decay. Water signal suppression was achieved using an excitation-sculpting scheme, and a 50 ms spinlock was used to suppress protein background signals.

tetrameric LDH-5 = tetrameric LDH-5 (Homo sapiens, UniProt P00338); test: nanoDSF thermal shift of LDH-5 with peptide; format: binding
tetrameric LDH-1 = test: WaterLOGSY NMR with LDH-1; format: binding, human; details: LDH-1 15 μM; LP-22 400 μM; 50 mM sodium phosphate pH 7.6, 100 mM NaCl, 10% heavy water; 277 K
Experimental: as §1, §2

dimeric LDH-Htr [3] = details: LDH-Htr 15 μM; peptide 500 μM; n = 3; 50 mM sodium phosphate, 100 mM NaCl, pH 7.6; stabilization
Experimental: Solutions of proteins (LDH-1, LDH-5, or LDH-Htr) with peptides were evaluated on a Tycho NT.6 device. Evaluations were performed in a 50 mM sodium phosphate and 100 mM NaCl (pH 7.6) buffer. According to standard manufacturer's procedures, samples were poured into capillaries and heated up to 95 °C in 3 min, while following fluorescence emission at 330 and 350 nm. Melting temperatures were extracted from the derivative of the 350/330 nm fluorescence ratios upon increasing temperature.

LDH-H variants [4] = test: Intrinsic tryptophan fluorescence spectra of variants; format: physicochemical, human; details: variant 1.3 μM; λexc 286 nm; n = 6; pH 7.6
Experimental: All spectrophotometric experiments were performed with opaque 96-well plates using a Spectramax m2e spectrophotometer (Molecular Devices) following previously described procedures ([16]).
Full tryptophan fluorescence spectra were recorded using an excitation wavelength of 286 nm and recording the emission spectra from 320 to 400 nm at room temperature. The raw fluorescence of each experiment was subtracted to a corresponding control experiment without the protein. […] For dissociation in subunits, increasing amounts of guanidinium hydrochloride ranging from 0.3 to 2 M were put in contact with the studied proteins (1.3 μM), and fluorescence spectra were recorded afterward.

LDH-H variants [5] = test: nanoDSF thermal denaturation of LDH-H variants; format: physicochemical, human; details: for nanoDSF denaturation pattern / Ratio 350/330 nm / Tm: n = 6; for nanoDSF denaturation pattern: in words; for Ratio 350/330 nm: nanoDSF fluorescence emission ratio; for Ratio 350/330 nm / Tm: pH 7.6; for Tm: Tycho NT.6, protein 25 to 65 μM, 50 mM sodium phosphate, 100 mM NaCl, 20% glycerol, mean ± SEM
Experimental: Solutions of proteins (LDH-H, LDH-Htr or variants), stored in a 50 mM sodium phosphate, 100 mM NaCl, and 20% glycerol, pH 7.6, were evaluated on a Tycho NT.6 device (NanoTemper Technologies) using concentrations ranging from 25 to 65 μM.

LDH-H oligomeric state = test: Mass photometry of LDH-H, LDH-Htr and variants; format: physicochemical, human; details: for Oligomeric state in solution: in words; for Molecular weight (main oligomeric state): mean ± SD, one measurement, repeated at least 3 times with similar results, 1 μl of 1 μM stock into 16 μl PBS; for Relative intensity of dimer peak / Molecular weight of dimer peak / Molecular weight of tetramer peak / Relative intensity of tetramer peak: peak label in figure; for Molecular weight of dimer peak: theoretical dimer 78 kDa (LDH-H), 73.2 kDa (LDH-Htr); for Molecular weight of tetramer peak: theoretical tetramer 155 kDa (LDH-H)
Experimental: Protein landing was recorded using a Refeyn OneMP (Refeyn Ltd) MP system by adding 1 μl of the protein stock solution (1 μM) directly into a 16 μl drop of filtered PBS solution. Movies were acquired for 60 s (6.000 frames) with the AcquireMP (version 2.1.1; Refeyn Ltd) software using standard settings. Data were analyzed using default settings on DiscoverMP (version 2.1.1; Refeyn Ltd) ([44]). Contrast-to-mass calibration was performed prior to the experiments using a mix of proteins with molecular weights of 66, 146, 480, and 1048 kDa.

Row | EC50 (tetrameric LDH-5; read-out: EC50 (destabilization of tetrameric LDH, ΔTm vs peptide concentration)) [µM] | Compound | Kd (dimeric LDH-Htr [1]) [µM] | WaterLOGSY saturation transfer with dimeric LDH-Htr (dimeric LDH-Htr [2]) | Dependence of LDH destabilization on protein concentration (tetrameric LDH-5; nanoDSF, Fig. S2) | WaterLOGSY saturation transfer with tetrameric LDH-1 (tetrameric LDH-1) | ΔTm of dimeric LDH-Htr (dimeric LDH-Htr [3]) [°C] | Tryptophan fluorescence intensity compared with LDH-1 (LDH-H variants [4]) | nanoDSF denaturation pattern (LDH-H variants [5]) | Ratio 350/330 nm (LDH-H variants [5]) | Tm (LDH-H variants [5]; nanoDSF) [°C] | Oligomeric state in solution (LDH-H oligomeric state) | Molecular weight (main oligomeric state) (LDH-H oligomeric state) [kDa] | Relative intensity of dimer peak (LDH-H oligomeric state) [%] | Molecular weight of dimer peak (LDH-H oligomeric state) [kDa] | Molecular weight of tetramer peak (LDH-H oligomeric state) [kDa] | Relative intensity of tetramer peak (LDH-H oligomeric state) [%] | Tm difference versus LDH-Htr (LDH-H variants [5]; nanoDSF, higher than LDH-Htr) [°C]
1 |  | CSCC[C@H](NC(=O)[C@H](CCC(=O)O)NC(=O)CNC(=O)[C@H](CCCCN)NC(=O)[C@H](CC(C)C)NC(=O)[C@H](CCCCN)NC(=O)[C@H](CC(=O)O)NC(=O)[C@H](CCC(=O)O)NC(=O)[C@@H](N)CC(C)C)C(=O)N[C@@H](CCSC)C(=O)N[C@@H](CC(=O)O)C(=O)N[C@@H](CC(C)C)C(=O)N[C@@H](CCC(N)=O)C(=O)N[C@@H](Cc1c[nH]cn1)C(=O)NCC(=O)N[C@@H](CO)C(=O)N[C@@H](CC(C)C)C(=O)N[C@@H](Cc1ccccc1)C(=O)N[C@@H](CC(C)C)C(=O)N[C@@H](CCC(N)=O)C(=O)N[C@H](C(=O)N1CCC[C@H]1C(N)=O)[C@@H](C)O [LP-22] | 156 | undergoes a saturation transfer with dimeric LDH-Htr | an increasing amount of subunit reverted the effect | not with the tetrameric LDH-1 | 2.8 |  |  |  |  |  |  |  |  |  |  | 
2 | 262 | Ac-GEMMDLQHGSLFLQTP-NH2 [GP-16] | 240 |  |  |  |  |  |  |  |  |  |  |  |  |  |  | 
3 |  | E62A: LDH-H recombinant alanine variant |  |  |  |  |  | decays in fluorescence intensity characteristic of the dimeric forms of LDHs | denaturation patterns comparable to dimeric LDH-Htr | 0.95 | 58.9 ± 0.1 | behaving mainly as dimers in solution | 77 ± 18 | 77 | 77 | 145 |  | 
4 |  | F72A: LDH-H recombinant alanine variant |  |  |  |  |  | decays in fluorescence intensity characteristic of the dimeric forms of LDHs | denaturation patterns comparable to dimeric LDH-Htr | 0.94 | 53.9 ± 0.1 | behaving mainly as dimers in solution | 70 ± 17 | 79 | 70 | 141 | 19 | 
5 |  | L71A: LDH-H recombinant alanine variant |  |  |  |  |  |  | a lower initial ratio and a red shift | 0.90 | 67.1 ± 0.1 | behaving as a mixture of tetramers and dimers | 148 ± 12 | 36 | 72 | 148 | 56 | 10
